Results taken from patent US20230072133A1 (WUXI BIOLOGICS IRELAND, published 2023).

Assays:
[1] = molecular target: T1, Human TGF-β1 (human, UniProt P01137 279-390); test: ELISA, plate coated with human TGF-β1
T1 construct: 22 kDa was used for the molar concentration in SPR
Description: (§1) The binding of antibodies to human TGF-β1, TGF-β2 and TGF-β3 was determined by ELISA. Plates were coated with human TGF-β1, TGF-β2 or TGF-β3 overnight at 4° C., respectively. After blocking and washing, various concentrations of testing antibodies were added to the plates and incubated at room temperature for 1 hour. The plates were then washed and incubated with HRP-labeled goat anti-human IgG antibody (Bethyl) for 1 hour. After washing, TMB substrate was added and the color reaction was stopped by 2M HCl. The absorbance at 450 nm and 540 nm was read using a microplate reader (SpectraMax M5e).

[2] = molecular target: T2, Cynomolgus monkey PD-L1, full length, on transfected cells (W315-293F.cynoPro1.2A2) (cynomolgus monkey, UniProt G7PSE7 19-290); test: FACS on cyno PD-L1 expressing 293F cells
T2 construct: also called cyno PD-L1; cell surface cyno PD-L1
T2 sequence (G7PSE7 entry or part of it limits assumed): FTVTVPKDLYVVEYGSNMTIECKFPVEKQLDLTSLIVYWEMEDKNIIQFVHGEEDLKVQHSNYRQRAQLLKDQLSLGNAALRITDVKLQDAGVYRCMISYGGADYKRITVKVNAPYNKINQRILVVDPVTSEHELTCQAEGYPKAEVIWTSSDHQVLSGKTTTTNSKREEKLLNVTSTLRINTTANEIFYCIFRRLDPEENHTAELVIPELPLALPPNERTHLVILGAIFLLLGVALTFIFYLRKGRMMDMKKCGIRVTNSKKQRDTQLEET
Description: (§2) The binding of testing antibodies to cynomolgus monkey or mouse PD-L1 was determined by FACS. Various concentrations of testing antibody were incubated with cynomolgus PD-L1-expressing W315-293F.cynoPro1.2A2 cells or mouse PD-L1 expressing W315-293F.mPro1.C1 cells at 4° C. for 1 hour, and then the binding of antibodies to the surface of the cells was detected by PE-labeled goat anti-human IgG-Fc antibody (Jackson Immuno Research). MFI of the cells was measured by a flow cytometer and analyzed by FlowJo.

[3] = molecular target: T3, Human PD-L1, full length, on transfected cells (W315-CHO-K1.hProl.C11) (human, UniProt Q9NZQ7 19-290); test: FACS on human PD-L1 expressing CHO-K1 cells
T3 construct: whole, on cells; Also used here for the human PD-L1 on the artificial APC (CHO-K1 with human PD-L1 and OKT3 scFv) of the reporter gene assay; also called hPD-L1; cell surface human PD-L1
T3 sequence (Q9NZQ7 19-290): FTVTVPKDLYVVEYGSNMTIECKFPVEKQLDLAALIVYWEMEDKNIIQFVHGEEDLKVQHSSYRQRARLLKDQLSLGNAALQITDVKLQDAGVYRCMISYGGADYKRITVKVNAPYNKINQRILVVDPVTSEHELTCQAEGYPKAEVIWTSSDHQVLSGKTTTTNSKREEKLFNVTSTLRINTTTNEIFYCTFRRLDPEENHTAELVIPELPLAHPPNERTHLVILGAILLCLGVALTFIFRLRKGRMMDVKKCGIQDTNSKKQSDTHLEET
Description: (§3) Various concentrations of testing antibodies were incubated with hPD-L1 expressing W315-CHO-K1.hProl.C11 cells at 4° C. for 1 hour. After washing, the cells were incubated with PE-labeled goat anti-human IgG-Fc antibody (Jackson Immuno Research). Finally, the MFI of the cells was measured by a flow cytometer and analyzed by FlowJo.

[4] = molecular target: T3, Human PD-L1, full length, on …; test: competition FACS: blocks mFc tagged human PD-1 binding to human PD-L1 expressing cells
Description: MFI of the cells was measured by a flow cytometer and analyzed by FlowJo.

[5] = molecular target: T4, Human TGF-β3 (human, UniProt P10600 301-412); test: ELISA, plate coated with human TGF-β3, antibody titrated, HRP goat anti-human IgG
T4 construct: also called TGF433 [sic]
T4 sequence (looked up): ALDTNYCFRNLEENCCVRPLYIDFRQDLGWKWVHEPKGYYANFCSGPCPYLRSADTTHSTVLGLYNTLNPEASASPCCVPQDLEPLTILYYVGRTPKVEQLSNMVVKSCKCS
Description: as §1

[6] = molecular target: T4, Human TGF-β3; test: ELISA, plate coated with human TGF-β3
Description: as §1

[7] = molecular target: T3, Human PD-L1, full length, on …; test: PD-L1 FACS on human PD-L1 expressing cells, WT1122 after 0 to 14 days in human serum at 37 °C [lower panel]
Description: as §3
(§4) The samples were quickly thawed immediately prior to the stability test.

[8] = molecular target: T5, Cynomolgus monkey (cyno) PD-L1 ECD antigen His tagged (cynomolgus monkey, UniProt G7PSE7 19-238); test: SPR (Biacore 8K), antibody captured by anti-human IgG Fc, PD-L1 as analyte, 1:1 model
T5 construct: also called Cyno PD-L1 (SPR analyte)
T5 sequence (G7PSE7 entry or part of it limits assumed): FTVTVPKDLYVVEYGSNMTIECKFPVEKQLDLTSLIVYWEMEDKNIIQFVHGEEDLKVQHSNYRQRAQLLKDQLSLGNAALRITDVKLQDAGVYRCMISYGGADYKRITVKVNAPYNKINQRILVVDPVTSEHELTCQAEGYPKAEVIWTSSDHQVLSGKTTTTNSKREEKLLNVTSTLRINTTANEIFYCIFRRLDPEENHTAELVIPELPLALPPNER
Description: (§5) Antibody was captured on an anti-human IgG Fc antibody immobilized CM5 sensor chip (GE). Human or cyno PD-L1 at different concentrations were injected over the sensor chip at a flow rate of 30 μL/min for an association phase of 180 s, followed by 3600 s dissociation. Mouse PD-L1 at different concentrations were injected over the sensor chip at a flow rate of 30 μL/min for an association phase of 120 s, followed by 1200 s dissociation. The chip was regenerated by 10 mM glycine (pH 1.5) after each binding cycle.
(§6) The sensorgrams of blank surface and buffer channel were subtracted from the test sensorgrams. […] The experimental data was fitted by 1:1 model using Langmiur analysis. Molecular weight of 40 kDa was used to calculate the molar concentration of human, mouse and cyno PD-L1.

[9] = molecular target: T6, Human PD-L1 extracellular domain (ECD) antigen His tagged (human, UniProt Q9NZQ7 19-238); test: as above
T6 construct: extracellular domain; The SPR and the PD-L1-coated ELISA say only 'human PD-L1'; also called human PD-L1 ECD protein; Human PD-L1 (SPR analyte); not shown: His tag
T6 sequence (Q9NZQ7 19-238): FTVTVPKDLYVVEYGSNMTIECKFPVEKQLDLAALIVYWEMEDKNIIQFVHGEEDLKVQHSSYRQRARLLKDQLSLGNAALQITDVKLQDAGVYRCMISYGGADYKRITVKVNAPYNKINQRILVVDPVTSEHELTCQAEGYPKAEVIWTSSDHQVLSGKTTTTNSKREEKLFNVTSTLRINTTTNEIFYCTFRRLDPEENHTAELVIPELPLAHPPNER
Description: as §5, §6

[10] = molecular target: T1, Human TGF-β1; test: dual binding ELISA coating with TGF-β1, WT1122 after 0 to 14 days in human serum at 37 °C, detected with biotinylated human PD-L1 ECD and streptavidin-HRP [upper panel]
Description: After blocking and washing, various concentrations of testing antibodies were added to the plates and incubated at room temperature for 1 hour. […] After washing, TMB substrate was added and the color reaction was stopped by 2M HCl. The absorbance at 450 nm and 540 nm was read using a microplate reader (SpectraMax M5e).
as §4

[11] = molecular target: T7, Human TGF-β2 (human, UniProt P61812 303-414); test: SPR (Biacore 8K), antibody immobilized on CM5, TGFβ as analyte, 1:1 model; SPR with WT1122 as ligand on the chip and soluble TGF-β2 as analyte: binds
T7 sequence (looked up): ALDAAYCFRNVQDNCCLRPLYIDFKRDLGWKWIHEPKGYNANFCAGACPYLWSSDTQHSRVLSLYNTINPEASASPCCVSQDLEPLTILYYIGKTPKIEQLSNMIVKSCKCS
Description: (§7) Antibody binding affinity to TGFβ was detected by SPR assay using Biacore 8K. Each antibody was immobilized on CM5 sensor chip (GE). Human TGFβ1 and TGFβ3 at different concentrations were injected over the sensor chip at a flow rate of 50 uL/min for an association phase of 240 s, followed by 1200 s dissociation. Human TGFβ2 at different concentrations were injected over the sensor chip at a flow rate of 50 uL/min for an association phase of 240 s, followed by 300 s dissociation. The chip was regenerated by 10 mM glycine (pH 1.5) after each binding cycle.
(§8) The sensorgrams of blank surface and buffer channel were subtracted from the test sensorgrams. The experimental data was fitted by 1:1 model using Langmiur analysis. Molecular weight of 22 kDa, 24 kDa and 22 kDa were used to calculate the molar concentration of analyte TGFβ1, TGFβ2 and TGFβ3, respectively. The results are shown in […]

[12] = molecular target: Human FcRn (human, UniProt P55899 24-297; P61769 21-119); test: SPR (Biacore 8K), antibody immobilized on CM5, human FcRn as analyte, steady-state model, pH 6.0
Sequence of Human FcRn (P55899 24-297 limits assumed, chain 1 of 2): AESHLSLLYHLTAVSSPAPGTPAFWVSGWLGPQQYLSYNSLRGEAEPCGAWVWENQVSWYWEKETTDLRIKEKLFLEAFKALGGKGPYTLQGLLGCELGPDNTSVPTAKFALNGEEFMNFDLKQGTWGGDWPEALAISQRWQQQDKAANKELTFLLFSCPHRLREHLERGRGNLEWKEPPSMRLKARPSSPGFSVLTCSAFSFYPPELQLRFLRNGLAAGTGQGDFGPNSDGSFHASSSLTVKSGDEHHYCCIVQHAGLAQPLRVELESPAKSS
Sequence of Human FcRn (P61769 21-119 limits assumed, chain 2 of 2): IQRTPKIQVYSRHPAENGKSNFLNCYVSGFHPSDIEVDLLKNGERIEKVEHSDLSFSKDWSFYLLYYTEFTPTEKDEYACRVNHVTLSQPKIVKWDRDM
Description: Each antibody was immobilized on CM5 sensor chip (GE). […] The chip was then regenerated by 10 mM glycine (pH 1.5) after each binding cycle. The sensorgrams of blank surface and buffer channel were subtracted from the test sensorgrams.

[13] = molecular target: T7, Human TGF-β2; test: ELISA, antibody immobilized, soluble TGF-β2 titrated; ELISA with antibody immobilized and soluble TGF-β2 titrated: binds
Description: The binding of antibody to human TGF-β2 was also determined by ELISA immobilized with testing antibodies. After blocking and washing, various concentrations of TGF-β2 were added to the plates and incubated at room temperature for 1 hour. The plates were then washed and incubated with biotinylated TGF-β2 detection antibody (R&D, DY240) for 1 hour, followed by streptavidin-HRP for 1 hour. After washing, TMB substrate was added and the color reaction was stopped by 2M HCl. The absorbance at 450 nm and 540 nm was read using a microplate reader (SpectraMax M5e).

[14] = molecular target: T4, Human TGF-β3; test: SPR (Biacore 8K), antibody immobilized on CM5, TGFβ as analyte, 1:1 model
Description: as §7, §8

[15] = molecular target: T1, Human TGF-β1; test: as above
Description: as §7, §8

[16] = molecular target: T8, Mouse PD-L1, full length, on transfected cells (W315-293F.mPro1.C1) (mouse, UniProt Q9EP73 19-290); test: FACS on mouse PD-L1 expressing 293F cells
T8 construct: whole, on cells; also called cell surface mouse PD-L1
T8 sequence (Q9EP73 19-290): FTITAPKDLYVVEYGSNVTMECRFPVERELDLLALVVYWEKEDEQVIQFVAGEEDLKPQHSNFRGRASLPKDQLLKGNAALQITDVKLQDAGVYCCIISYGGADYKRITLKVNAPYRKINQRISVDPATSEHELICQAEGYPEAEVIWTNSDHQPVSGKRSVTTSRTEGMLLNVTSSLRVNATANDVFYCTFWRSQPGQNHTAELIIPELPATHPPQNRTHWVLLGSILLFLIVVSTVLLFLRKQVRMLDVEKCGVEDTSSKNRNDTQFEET
Description: as §2

[17] = molecular target: T9, Mouse PD-L1 (soluble SPR analyte) (mouse, UniProt Q9EP73 19-239, limits assumed); test: SPR (Biacore 8K), antibody captured by anti-human IgG Fc, mouse PD-L1 as analyte, 0-300 s curves fitted
T9 construct: 40 kDa used for molarity
T9 sequence (Q9EP73 19-239 limits assumed): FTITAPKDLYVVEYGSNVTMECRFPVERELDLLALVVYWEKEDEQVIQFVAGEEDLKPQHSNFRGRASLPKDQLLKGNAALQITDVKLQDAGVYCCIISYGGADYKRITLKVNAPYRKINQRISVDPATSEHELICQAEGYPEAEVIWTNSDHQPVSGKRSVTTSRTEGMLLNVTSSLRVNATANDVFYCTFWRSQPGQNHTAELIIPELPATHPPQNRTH
Description: as §5, §6

[18] = molecular target: T1, Human TGF-β1; test: ELISA, plate coated with human TGF-β1, antibody titrated, HRP goat anti-human IgG
Description: as §1

[19] = molecular target: T1, Human TGF-β1; test: cell-based or functional assay
[20] = molecular target: T3, Human PD-L1, full length, on …; test: cell-based or functional assay

T1 sequence (P01137 279-390 limits assumed): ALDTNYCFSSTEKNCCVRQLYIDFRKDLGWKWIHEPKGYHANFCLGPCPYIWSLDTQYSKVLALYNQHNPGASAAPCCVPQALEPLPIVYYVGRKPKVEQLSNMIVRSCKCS

B1: WT1122-U14T1.G15-1.uIgG1 (antibody)
heavy: not shown
light: SYELTQPPSVSVSPGQTASITCSGSELPKRYAYWYQQKPGQSIVRVIYKDSERPSGISERFSGSSSGNTATLTISGTQAMDEADYYCSSTYGDRKLPIFGGGTKLTVLGQPKAAPSVTLFPPSSEELQANKATLVCLISDFYPGAVTVAWKADSSPVKAGVETTTPSKQSNNKYAASSYLSLTPEQWKSHKSYSCQVTHEGSTVEKTVAPTECS
Binder B1 has an EC50 [1] of 0.5 nM, an EC50 [2] of 1.08 nM and an EC50 [3] of 0.7 nM. For the same binder, the IC50 [4] was 0.04 nM, the “EC50 (read off the curve)” value [5] was ~0.8 nM and the EC50 [6] was 0.8 nM. For the same binder, the “EC50 (read off the curve)” value [7] was ~0.2 nM, the Kd [8] was 0.446 nM and the koff [8] was 0.00135 s⁻¹. For the same binder, the kon [8] was 3.03e+06 M⁻¹ s⁻¹, the Kd [9] was 0.695 nM and the koff [9] was 0.00168 s⁻¹. For the same binder, the kon [9] was 2.41e+06 M⁻¹ s⁻¹, the “EC50 (read off the curve)” value [10] was ~0.4 nM and the Kd [11] was 0.369 nM. The koff [11] was 0.0149 s⁻¹, the kon [11] was 4.02e+07 M⁻¹ s⁻¹ and the Kd [12] was 2570 nM. For the same binder, the EC50 [13] was 0.07 nM, the Kd [14] was 0.00162 nM and the koff [14] was 9.35e-05 s⁻¹. It also gave a kon [14] of 5.78e+07 M⁻¹ s⁻¹, a Kd [15] of 0.00165 nM and a koff [15] of 0.000206 s⁻¹. The kon [15] was 1.25e+08 M⁻¹ s⁻¹, the EC50 [16] was 1.2 nM and the Kd [17] was 1080 nM. For the same binder, the “EC50 (read off the curve)” value [18] was ~0.5 nM, the “TGF-β1 blockade IC50, SBE luciferase reporter gene assay (RGA)” value [19] was 1.2 nM and the “hPD-1/PD-L1 signaling blockade IC50, NFAT luciferase reporter gene assay (RGA)” value [20] was 0.31 nM.
